This note sets out measurements from patent EP4442275A1, “ANTI-TYPE II COLLAGEN ANTIBODIES” (ModiQuest B.V., priority 2023, dated 2024).

“Also recorded” adds a separate entry of the source.

The target in test [1] is T1, human cartilage explants (Homo sapiens, UniProt P02458).
T1 construct: From surgical waste material obtained after total knee arthroplasty; from tissue; host or cells: human articular cartilage from joint replacement surgery of OA patients
Nature of the test: Binding of 111In-labeled DTPA-conjugated antibodies to human cartilage explants (gamma counting). The conditions noted are these: Figure 8.

The target in test [2] is T1, human cartilage explants. Nature of the test: Binding of DTPA-IrDye 800CW conjugated antibodies to human cartilage with or without trypsin (Odyssey CLX imaging). The note with it: 4 µg/ml, 4 H, 37°C; preserved regions of OA cartilage; Figure 9. Here is the method:
From surgical waste material obtained after total knee arthroplasty (Patient number SMK1186), human cartilage from the macroscopically preserved regions was isolated with a surgical blade, and 6 mm punches were made using a biopsy punch. Human cartilage explants were overnight incubated in DMEM/F12 without FBS supplemented with 10.000 U/mL penicillin/streptomycin at 37°C with 5% CO2. Half of the explants were incubated for 1 H with 2.5% Trypsin-EDTA in PBS at 37°C on a roller in a 50 ml falcon tube. The other half was incubated under the same conditions in PBS. The trypsin-EDTA was replaced by 1% FBS in PBS (to block the enzymatic activity of trypsin), in which the explants were incubated for 15 min. Cartilage explants were washed with PBS (3x 5 min). Three explants/condition were divided over sterile FACS tubes and exposed 4 µg/ml DTPA-IrDye 800CW isotype (2.201a) (substitution ratio IrDye 800CW= 1.54) or DTPA-IrDye 800CW anti-COLL II antibody (MQ4.112 hz3_1) (substitution ratio IrDye 800CW= 1.83) in DMEM/F12 media supplemented with 0.5% BSA (final volume was 1 ml) for 4 H on a roller at 37°C. […]
The explants were transferred to the bottom of wells of a 96-well plate to image with the Odyssey CLX near infrared imaging system. The fluorescent signal was measured in manually drawn ROI around the cartilage explants which was corrected for background signal by the software. […]

In the next test the target is T2, human cartilage (Homo sapiens, UniProt P02458).
T2 construct: From surgical waste material obtained after total knee arthroplasty; from tissue; host or cells: human articular cartilage from joint replacement surgery of OA patients
The test is described as follows: Ex vivo binding to human cartilage with different stages of OA-induced damage (Odyssey CLX imaging). Here is the method: From surgical waste material obtained after total knee arthroplasty (Patient number SMK1180), human cartilage from the macroscopically preserved, medium damage and severe damaged regions were isolated with a surgical blade. Human cartilage explants were overnight incubated in DMEM/F12 without FBS supplemented with 10.000 U/mL penicillin/streptomycin at 37°C with 5% CO2. Punches (6 mm) were generated using a biopsy punch. Three explants/damage condition were divided over sterile FACS tubes and exposed 4 µg/ml DTPA-IrDye 800CW isotype (2.201a) (substitution ratio IrDye 800CW= 1.54) or DTPA-IrDye 800CW anti-COLL II antibody (MQ4.112 hz3_1) (substitution ratio IrDye 800CW= 1.83) in DMEM/F12 media supplemented with 0.5% BSA (final volume was 1 ml) for 4 H on a roller at 37°C. After this incubation the samples were transferred to 50 ml falcon tubes (1 tube/condition, 3 punches/tube) and washed with PBS (50 ml) at 37°C (1x 30 min), followed by an o/n wash with PBS on a shaker at 4°C.
The explants were transferred to the bottom of wells of a 96-well plate to measure the cartilage associated fluorescence with the Odyssey CLX near infrared imaging system (Figure 11). The cartilage was fixed in formalin for 4 H and thereafter transferred to 70% ethanol until processed/embedded in paraffin. […]

T2 sequence (P02458 182-1241 limits assumed): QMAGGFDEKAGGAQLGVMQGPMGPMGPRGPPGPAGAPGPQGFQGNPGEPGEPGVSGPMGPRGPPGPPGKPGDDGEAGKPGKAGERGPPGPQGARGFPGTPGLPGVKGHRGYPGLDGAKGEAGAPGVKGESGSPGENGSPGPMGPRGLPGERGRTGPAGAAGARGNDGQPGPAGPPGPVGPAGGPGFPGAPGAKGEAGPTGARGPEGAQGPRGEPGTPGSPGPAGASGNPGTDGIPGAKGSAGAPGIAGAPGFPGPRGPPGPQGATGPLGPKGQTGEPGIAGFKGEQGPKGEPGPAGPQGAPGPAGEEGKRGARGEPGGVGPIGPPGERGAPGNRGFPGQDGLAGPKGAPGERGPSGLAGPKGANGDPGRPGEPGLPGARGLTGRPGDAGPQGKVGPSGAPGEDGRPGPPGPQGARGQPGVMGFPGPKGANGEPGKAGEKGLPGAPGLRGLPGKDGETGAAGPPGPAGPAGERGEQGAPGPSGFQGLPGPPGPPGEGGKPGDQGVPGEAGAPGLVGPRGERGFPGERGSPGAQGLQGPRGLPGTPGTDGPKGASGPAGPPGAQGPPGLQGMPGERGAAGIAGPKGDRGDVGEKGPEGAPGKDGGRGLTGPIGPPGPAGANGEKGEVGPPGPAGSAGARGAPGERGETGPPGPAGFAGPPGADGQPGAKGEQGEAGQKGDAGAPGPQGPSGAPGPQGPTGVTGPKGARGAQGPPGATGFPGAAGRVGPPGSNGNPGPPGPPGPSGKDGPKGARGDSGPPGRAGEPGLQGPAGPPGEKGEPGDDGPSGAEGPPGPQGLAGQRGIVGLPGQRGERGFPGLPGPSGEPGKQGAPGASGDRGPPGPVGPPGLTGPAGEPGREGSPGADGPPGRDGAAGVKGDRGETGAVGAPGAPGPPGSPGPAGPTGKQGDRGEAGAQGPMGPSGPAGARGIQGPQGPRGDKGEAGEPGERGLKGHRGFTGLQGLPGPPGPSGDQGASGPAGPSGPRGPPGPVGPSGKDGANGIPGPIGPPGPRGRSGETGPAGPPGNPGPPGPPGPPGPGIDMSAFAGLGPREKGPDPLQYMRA
T1 sequence (P02458 182-1241 limits assumed): as above

B1: [^111In]In-DTPA-MQ4.112hz_3_1: MQ4.112hz_3_1 conjugated with DTPA and labeled with 111In (conjugate)
VH: DVQLQESGPGLVKPSETLSLTCAVSGYSITSDYYWHWIRQFPGKGLEWMGYISYDGSNNYNPSLKSRVTISVDTSKNQFSLKLSSVTAADTAVYYCARDDDAMDYWGQGTLVTVSS
VL: DIQMTQSPSSLSASVGDRVTITCRASQDISNYLNWYQQKPGKAPKLLIYYTSRLHSGVPSRFSGSGSGTDFTFTISSLQPEDIATYYCQQGNTLPPTFGQGTKVEIK
As for B1, the “cartilage associated radioactivity corrected for their weight, trypsin-damaged human cartilage compared to non-treated explants” value with human cartilage explants [1] (4 µg/ml, 1.5 H, 37°C) is given as “higher”. Besides, the “cartilage associated radioactivity/gram in trypsin-damaged human cartilage compared to isotype” value in the test with human cartilage explants [1] (p<0.001, One-way ANOVA) was “higher”.

B2: DTPA-IrDye 800CW anti-COLL II (MQ4.112 hz3_1): MQ4.112hz_3_1 dually conjugated with DTPA and IrDye 800CW, substitution ratio IrDye 800CW= 1.83 (conjugate)
VH: DVQLQESGPGLVKPSETLSLTCAVSGYSITSDYYWHWIRQFPGKGLEWMGYISYDGSNNYNPSLKSRVTISVDTSKNQFSLKLSSVTAADTAVYYCARDDDAMDYWGQGTLVTVSS
VL: DIQMTQSPSSLSASVGDRVTITCRASQDISNYLNWYQQKPGKAPKLLIYYTSRLHSGVPSRFSGSGSGTDFTFTISSLQPEDIATYYCQQGNTLPPTFGQGTKVEIK
With B2, the “binding (fluorescent signal) to trypsin-induced damaged human cartilage explants compared to untreated explants” value with human cartilage explants [2] was “increased binding; also recorded: increases”. Also, the “localization of the fluorescent signal in sections of the explants” value in the test with human cartilage (Figure 11 bottom, compared with SafO staining) is recorded as “localizes on the spots where visible cartilage damage is present”. Also, the “binding (fluorescent signal) to cartilage when OA-damage increases” value in the test with human cartilage (macroscopically preserved, medium damage and severe damaged regions, 4 µg/ml, 4 H, Figure 11, listed as DTPA-IrDye 800CW anti-COLL II antibody) is reported as “binds more; also recorded: increases”.
